Test results as given in US20140274782A1, “AFFINITY REAGENTS AND METHODS FOR DETECTION, PURIFICATION, AND PROTEOMIC ANALYSIS OF METHYLATED PROTEINS” (The Board of Trustees of the Leland Stanford Junior …, priority 2013, published 2014).

T1: G9a and GLP (Homo sapiens, UniProt Q96KQ7+Q9H9B1)
T1 sequence (Q96KQ7 2-1210 limits assumed): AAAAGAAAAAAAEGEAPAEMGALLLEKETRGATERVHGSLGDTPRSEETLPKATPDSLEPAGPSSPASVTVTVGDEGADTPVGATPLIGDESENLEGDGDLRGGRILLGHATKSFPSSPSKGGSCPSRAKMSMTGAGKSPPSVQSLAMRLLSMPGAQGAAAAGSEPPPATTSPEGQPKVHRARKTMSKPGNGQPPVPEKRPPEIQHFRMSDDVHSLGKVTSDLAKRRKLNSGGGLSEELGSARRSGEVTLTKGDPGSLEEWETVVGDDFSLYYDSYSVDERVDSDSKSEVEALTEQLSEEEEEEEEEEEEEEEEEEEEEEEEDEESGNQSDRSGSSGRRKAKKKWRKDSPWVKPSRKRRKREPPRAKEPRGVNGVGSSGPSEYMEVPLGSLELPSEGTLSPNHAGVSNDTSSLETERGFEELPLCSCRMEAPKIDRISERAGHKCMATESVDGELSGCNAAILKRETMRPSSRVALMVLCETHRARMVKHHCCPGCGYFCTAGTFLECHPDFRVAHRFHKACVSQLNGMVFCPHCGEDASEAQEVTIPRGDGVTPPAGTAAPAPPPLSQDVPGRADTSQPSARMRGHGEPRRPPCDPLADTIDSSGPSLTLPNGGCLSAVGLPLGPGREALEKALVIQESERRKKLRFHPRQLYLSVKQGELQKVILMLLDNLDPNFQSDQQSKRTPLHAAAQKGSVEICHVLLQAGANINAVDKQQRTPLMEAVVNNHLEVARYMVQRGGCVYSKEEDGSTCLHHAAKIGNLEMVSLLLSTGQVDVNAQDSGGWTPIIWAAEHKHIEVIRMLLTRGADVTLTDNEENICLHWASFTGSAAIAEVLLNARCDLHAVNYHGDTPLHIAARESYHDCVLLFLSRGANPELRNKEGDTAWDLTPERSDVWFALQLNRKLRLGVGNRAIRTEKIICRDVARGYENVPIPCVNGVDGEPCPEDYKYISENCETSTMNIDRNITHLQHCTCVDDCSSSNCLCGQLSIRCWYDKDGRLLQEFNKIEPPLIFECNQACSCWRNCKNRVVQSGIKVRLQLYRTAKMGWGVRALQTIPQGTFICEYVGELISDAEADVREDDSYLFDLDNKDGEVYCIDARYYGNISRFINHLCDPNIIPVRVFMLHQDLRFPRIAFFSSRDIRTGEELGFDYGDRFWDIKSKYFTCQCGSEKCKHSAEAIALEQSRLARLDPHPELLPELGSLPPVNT
T1 sequence (Q9H9B1 2-1298 limits assumed): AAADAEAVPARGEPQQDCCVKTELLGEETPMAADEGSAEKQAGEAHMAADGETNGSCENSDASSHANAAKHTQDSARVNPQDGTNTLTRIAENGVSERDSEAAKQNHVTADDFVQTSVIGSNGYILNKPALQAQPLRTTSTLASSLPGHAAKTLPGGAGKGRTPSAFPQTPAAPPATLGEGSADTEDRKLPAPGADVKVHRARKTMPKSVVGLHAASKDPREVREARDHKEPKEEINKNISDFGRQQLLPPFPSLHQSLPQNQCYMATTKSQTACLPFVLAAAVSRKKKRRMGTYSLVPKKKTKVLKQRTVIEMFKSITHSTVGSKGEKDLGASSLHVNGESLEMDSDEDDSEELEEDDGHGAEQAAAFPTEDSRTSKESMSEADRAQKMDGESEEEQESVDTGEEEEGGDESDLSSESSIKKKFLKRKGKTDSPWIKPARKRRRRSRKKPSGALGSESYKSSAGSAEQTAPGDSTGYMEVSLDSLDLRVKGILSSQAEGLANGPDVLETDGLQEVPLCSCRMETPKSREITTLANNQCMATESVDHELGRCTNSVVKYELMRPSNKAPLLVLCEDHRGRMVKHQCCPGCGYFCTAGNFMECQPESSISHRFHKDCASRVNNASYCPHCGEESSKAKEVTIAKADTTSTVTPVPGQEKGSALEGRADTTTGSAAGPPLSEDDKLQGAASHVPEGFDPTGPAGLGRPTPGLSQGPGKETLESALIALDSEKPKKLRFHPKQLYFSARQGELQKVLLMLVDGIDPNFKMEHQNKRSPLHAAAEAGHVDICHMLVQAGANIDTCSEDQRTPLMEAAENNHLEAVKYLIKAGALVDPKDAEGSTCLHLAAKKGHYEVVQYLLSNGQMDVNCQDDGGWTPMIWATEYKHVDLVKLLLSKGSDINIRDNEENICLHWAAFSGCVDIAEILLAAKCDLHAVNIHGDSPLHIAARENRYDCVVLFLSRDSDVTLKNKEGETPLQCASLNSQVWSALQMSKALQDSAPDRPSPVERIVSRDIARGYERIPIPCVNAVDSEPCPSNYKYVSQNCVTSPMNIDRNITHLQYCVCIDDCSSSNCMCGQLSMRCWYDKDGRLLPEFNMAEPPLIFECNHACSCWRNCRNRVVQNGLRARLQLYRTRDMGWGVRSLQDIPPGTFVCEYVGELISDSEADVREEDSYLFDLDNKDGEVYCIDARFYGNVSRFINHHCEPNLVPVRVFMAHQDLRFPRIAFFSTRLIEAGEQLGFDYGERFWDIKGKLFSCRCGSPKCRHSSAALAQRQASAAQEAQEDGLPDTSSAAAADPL

B1: LSM12 (protein, UniProt Q3MHD2 2-195, looked up)
Protein LSM12: AAPPGEYFSVGSQVSCRTCQEQRLQGEVVAFDYQSKMLALKCPSSSGKPNHADILLINLQYVSEVEIINDRTETPPPLASLNVSKLASKARTEKEEKLSQAYAISAGVSLEGQQLFQTIHKTIKDCKWQEKNIVVMEEVVITPPYQVENCKGKEGSALSHVRKIVEKHFRDVESQKILQRSQAQQPQKEAALSS
B2: CALD1 (protein, UniProt Q05682 1-793, looked up)
Caldesmon: MDDFERRRELRRQKREEMRLEAERIAYQRNDDDEEEAARERRRRARQERLRQKQEEESLGQVTDQVEVNAQNSVPDEEAKTTTTNTQVEGDDEAAFLERLARREERRQKRLQEALERQKEFDPTITDASLSLPSRRMQNDTAENETTEKEEKSESRQERYEIEETETVTKSYQKNDWRDAEENKKEDKEKEEEEEEKPKRGSIGENQVEVMVEEKTTESQEETVVMSLKNGQISSEEPKQEEEREQGSDEISHHEKMEEEDKERAEAERARLEAEERERIKAEQDKKIADERARIEAEEKAAAQERERREAEERERMREEEKRAAEERQRIKEEEKRAAEERQRIKEEEKRAAEERQRIKEEEKRAAEERQRARAEEEEKAKVEEQKRNKQLEEKKHAMQETKIKGEKVEQKIEGKWVNEKKAQEDKLQTAVLKKQGEEKGTKVQAKREKLQEDKPTFKKEEIKDEKIKKDKEPKEEVKSFMDRKKGFTEVKSQNGEFMTHKLKHTENTFSRPGGRASVDTKEAEGAPQVEAGKRLEELRRRRGETESEEFEKLKQKQQEAALELEELKKKREERRKVLEEEEQRRKQEEADRKLREEEEKRRLKEEIERRRAEAAEKRQKMPEDGLSDDKKPFKCFTPKGSSLKIEERAEFLNKSVQKSSGVKSTHQAAIVSKIDSRLEQYTSAIEGTKSAKPTKPAASDLPVPAEGVRNIKSMWEKGNVFSSPTAAGTPNKETAGLKVGVSSRINEWLTKTPDGNKSPAPKPSDLRPGDVSSKRNLWEKQSVDKVTSPTKV
B3: PRDX2 (protein, UniProt P32119 2-198, looked up)
Peroxiredoxin-2: ASGNARIGKPAPDFKATAVVDGAFKEVKLSDYKGKYVVLFFYPLDFTFVCPTEIIAFSNRAEDFRKLGCEVLGVSVDSQFTHLAWINTPRKEGGLGPLNIPLLADVTRRLSEDYGVLKTDEGIAYRGLFIIDGKGVLRQITVNDLPVGRSVDEALRLVQAFQYTDEHGEVCPAGWKPGSDTIKPNVDDSKEYFSKHN
B4: SRP14 (protein, UniProt P37108 2-136, looked up)
Signal recognition particle …: VLLESEQFLTELTRLFQKCRTSGSVYITLKKYDGRTKPIPKKGTVEGFEPADNKCLLRATDGKKKISTVVSSKEVNKFQMAYSNLLRANMDGLKKRDKKNKTKKTKAAAAAAAAAPAAAATAPTTAATTAATAAQ

System: 3×MBT domain of L3MBTL1
Experiment: Triple SILAC pull-down, 3xMBT/3xMBTD355N ratio (cytoplasmic, nuclear and chromatin fractions of 293T cells);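 further: proteins quantified with MaxQuant, requiring at least two unique peptides and quantification in both label directions, normalized to the mean of proteins from a digested loading control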
Format: binding, human
Conditions: SILAC ratio, pull-down 3xMBT vs 3xMBTD355N; experiment with UNC0638 in heavy SILAC media
Description: For stable isotope labeling by amino acids in cell culture (SILAC) experiments HEK 293T cells were grown for at least six doublings in DMEM for SILAC supplemented with 10% dialyzed fetal bovine serum (FBS), 230 mg/L L-proline and either 100 mg/L each of L-lysine and L-arginine (“light” medium), D4-L-lysine and ^13C6-L-arginine (“medium” media), or ^13C6^15N2-L-lysine and ^13C6^15N4-L-arginine (Thermo Scientific). Heavy methyl labeling used DMEM without L-Methionine or L-Cysteine supplemented with D3^13C-L-Methionine (Sigma), L-Cysteine (Sigma) and 10% dialyzed FBS.
For UNC0638 treatments cells were treated for 24 hours with UNC0638 at 2.5 μM or DMSO vehicle control. One experiment treated cells in light media with UNC0638, the other treated cells in heavy media. Both experiments included cells in medium media treated with DMSO for negative control pull-down with 3×MBTD355N.
UNC0638 treatment experiments used a Q-Exactive mass spectrometer (ThermoFisher Scientific). A 25 cm HPLC column with 3 μm Reliasil (Orochem) was used to separate peptides over a 4 hour gradient from 0 to 75% acetonitrile. Ions were generated using a custom nanospray source flowing at 250 nL/minute. Mass spectrometry settings were 70,000 MS1 resolution, data dependent selection of up to 20 precursor ions per cycle, dynamic exclusion of 30 seconds and isolation window of 2 m/z. The nuclear fraction from the experiment using UNC0638 on cells in heavy media was additionally analyzed by 2D HPLC-MS/MS as described earlier.
Peptides were identified and quantified using MaxQuant version 1.2.2.5 (Cox and Mann, supra) with the following changes to default settings: mono- and di-methylation of lysine, and oxidation of methionine, and N-terminal acetylation as variable modifications, disabled “I=L”, up to three modifications per peptide, one missed cleavage, maximum charge of 5. Protein and peptide FDR were set to 1%, and proteins were filtered post-hoc for at least two unique peptides. Proteins were excluded from an experiment if they were not quantified in both labeling directions. Because FDR is unreliable for small numbers of peptides the modification site FDR was set to 10% and all methylated peptides were manually verified. […] Quantitative protein data was normalized to the mean value among proteins identified by analyzing 50 ng of digested loading control.
For UNC0638 experiments the treated vs. untreated ratio was determined by subtracting the value from 3×MBTD355N prior to dividing values from the light and heavy channels. Only proteins showing a two-fold signal to background ratio (3×MBT/3×MBTD355N) were evaluated as potential G9a/GLP substrates.

Row | Molecule | 3xMBT/D355N UNC Heavy
1 | B1 | 2.07 log base 2
2 | B2 | 3.53 log base 2
3 | B3 | 2.19 log base 2
4 | B4 | 2.23 log base 2

Same assay, conditions: SILAC ratio, pull-down 3xMBT vs 3xMBTD355N; experiment with UNC0638 in light SILAC media

Row | Molecule | 3xMBT/D355N UNC Light
5 | B1 | 3.81 log base 2
6 | B2 | 3.50 log base 2
7 | B3 | 4.01 log base 2
8 | B4 | 2.96 log base 2

Molecular target: T1, G9a and GLP
Experiment: Triple SILAC pull-down after UNC0638 treatment of 293T cells, DMSO/UNC0638 ratio of protein captured by 3×MBT;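 further: mass spectrometry (Q-Exactive) SILAC quantitation, DMSO/UNC0638 ratio computed after subtracting 3×MBTD355N mutant pull-down background, only proteins with at least twofold 3×MBT over mutant signal considered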
Format: cell-based
Parameters: cells were treated for 24 hours with UNC0638 at 2.5 μM or DMSO vehicle control; endogenous in cells; host or cells: HEK 293T
Conditions: SILAC ratio DMSO/UNC0638 of protein pulled down with 3xMBT; UNC0638 in heavy SILAC media

Row | Relative to UNC0638 UNC Heavy | Molecule
9 | 0.03 log base 2 | B1
10 | 0.29 log base 2 | B2
11 | 0.43 log base 2 | B3
12 | 0.30 log base 2 | B4

Same assay, conditions: SILAC ratio DMSO/UNC0638 of protein pulled down with 3xMBT; UNC0638 in light SILAC media

Row | Relative to UNC0638 UNC Light | Molecule
13 | 0.34 log base 2 | B1
14 | 0.09 log base 2 | B2
15 | 1.96 log base 2 | B3
16 | 0.07 log base 2 | B4

Same assay, conditions: average of UNC Light and UNC Heavy experiments

Row | Relative to UNC0638 Average | Molecule
17 | 0.18 log base 2 | B1
18 | 0.19 log base 2 | B2
19 | 1.19 log base 2 | B3
20 | 0.19 log base 2 | B4

Same assay, conditions: reduced association with 3xMBT after UNC0638 treatment

Row | Candidate G9a/GLP target | Molecule
21 | ✓ | B3
